What was measured:
4H2915-bN = biological target: T1, 4H2915-bN; test: two-hybrid library CCNG1;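 also: natural log of median RNA to DNA barcode read ratio; higher means stronger binding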
T1 chain: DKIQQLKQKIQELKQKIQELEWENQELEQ

4H3057-bN = biological target: T2, 4H3057-bN; test: two-hybrid library CCNG1;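 also: natural log of median RNA to DNA barcode read ratio; higher means stronger binding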
T2 chain: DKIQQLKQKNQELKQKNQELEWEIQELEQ

4H319-bN = biological target: T3, 4H319-bN; test: two-hybrid library CCNG1;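 also: natural log of median RNA to DNA barcode read ratio; higher means stronger binding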
T3 chain: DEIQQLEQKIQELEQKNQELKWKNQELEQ

4H3277-bN = biological target: T4, 4H3277-bN; test: two-hybrid library CCNG1;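 also: natural log of median RNA to DNA barcode read ratio; higher means stronger binding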
T4 chain: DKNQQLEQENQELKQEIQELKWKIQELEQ

4H348-bN = biological target: T5, 4H348-bN; test: two-hybrid library CCNG1;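 also: natural log of median RNA to DNA barcode read ratio; higher means stronger binding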
T5 chain: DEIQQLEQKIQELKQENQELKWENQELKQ

4H40-bN = biological target: T6, 4H40-bN; test: two-hybrid library CCNG1;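 also: natural log of median RNA to DNA barcode read ratio; higher means stronger binding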
T6 chain: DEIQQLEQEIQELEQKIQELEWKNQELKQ

4H477-bN = biological target: T7, 4H477-bN; test: two-hybrid library CCNG1
T7 chain: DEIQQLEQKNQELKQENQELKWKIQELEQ

4H492-bN = biological target: T8, 4H492-bN; test: two-hybrid library CCNG1
T8 chain: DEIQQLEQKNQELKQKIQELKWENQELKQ

4H741-bN = biological target: T9, 4H741-bN; test: two-hybrid library CCNG1
T9 chain: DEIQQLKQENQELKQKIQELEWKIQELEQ

4H2198-AA = biological target: T10, 4H2198-AA; test: two-hybrid library CCmax
T10 chain: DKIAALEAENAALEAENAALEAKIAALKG

4H2553-AA = biological target: T11, 4H2553-AA; test: two-hybrid library CCmax; details: mean of both orientations
T11 chain: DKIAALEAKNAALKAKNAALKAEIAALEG

4H2611-AA = biological target: T12, 4H2611-AA; test: two-hybrid library CCmax; details: mean of both orientations
T12 chain: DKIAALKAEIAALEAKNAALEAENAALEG

4H2620-AA = biological target: T13, 4H2620-AA; test: two-hybrid library CCmax; details: mean of both orientations
T13 chain: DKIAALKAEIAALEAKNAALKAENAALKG

4H2648-AA = biological target: T14, 4H2648-AA; test: two-hybrid library CCmax; details: mean of both orientations
T14 chain: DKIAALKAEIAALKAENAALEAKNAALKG

4H2907-AA = biological target: T15, 4H2907-AA; test: two-hybrid library CCmax; details: mean of both orientations
T15 chain: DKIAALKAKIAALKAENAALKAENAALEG

4H3056-AA = biological target: T16, 4H3056-AA; test: two-hybrid library CCmax; details: mean of both orientations
T16 chain: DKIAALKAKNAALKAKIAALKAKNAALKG

4H3133-AA = biological target: T17, 4H3133-AA; test: two-hybrid library CCmax; details: mean of both orientations
T17 chain: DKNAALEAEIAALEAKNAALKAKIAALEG

4H3162-AA = biological target: T18, 4H3162-AA; test: two-hybrid library CCmax; details: mean of both orientations
T18 chain: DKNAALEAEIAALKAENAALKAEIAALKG

4H32-AA = biological target: T19, 4H32-AA; test: two-hybrid library CCmax; details: mean of both orientations
T19 chain: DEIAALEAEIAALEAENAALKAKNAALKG

4H3378-AA = biological target: T20, 4H3378-AA; test: two-hybrid library CCmax
T20 chain: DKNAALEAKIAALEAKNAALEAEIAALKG

4H340-AA = biological target: T21, 4H340-AA; test: two-hybrid library CCmax; details: mean of both orientations
T21 chain: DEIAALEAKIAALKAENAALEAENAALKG

4H3413-AA = biological target: T22, 4H3413-AA; test: two-hybrid library CCmax; details: mean of both orientations
T22 chain: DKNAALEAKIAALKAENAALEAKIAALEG

4H3588-AA = biological target: T23, 4H3588-AA; test: two-hybrid library CCmax; details: mean of both orientations
T23 chain: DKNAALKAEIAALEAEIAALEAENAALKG

4H3606-AA = biological target: T24, 4H3606-AA; test: two-hybrid library CCmax; details: mean of both orientations
T24 chain: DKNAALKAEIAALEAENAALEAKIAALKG

4H3631-AA = biological target: T25, 4H3631-AA; test: two-hybrid library CCmax; details: mean of both orientations
T25 chain: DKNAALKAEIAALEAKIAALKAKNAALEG

4H3697-AA = biological target: T26, 4H3697-AA; test: two-hybrid library CCmax; details: mean of both orientations
T26 chain: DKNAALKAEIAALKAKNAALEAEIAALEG

4H3718-AA = biological target: T27, 4H3718-AA; test: two-hybrid library CCmax; details: mean of both orientations
T27 chain: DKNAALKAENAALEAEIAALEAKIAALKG

4H384-AA = biological target: T28, 4H384-AA; test: two-hybrid library CCmax; details: mean of both orientations
T28 chain: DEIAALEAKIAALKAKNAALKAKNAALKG

4H3865-AA = biological target: T29, 4H3865-AA; test: two-hybrid library CCmax; details: mean of both orientations
T29 chain: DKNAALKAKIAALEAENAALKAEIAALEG

4H697-AA = biological target: T30, 4H697-AA; test: two-hybrid library CCmax; details: mean of both orientations
T30 chain: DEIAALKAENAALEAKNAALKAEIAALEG

4H982-AA = biological target: T31, 4H982-AA; test: two-hybrid library CCmax; details: mean of both orientations
T31 chain: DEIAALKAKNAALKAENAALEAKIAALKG

O5 = biological target: T32, O5; test: two-hybrid library CCNG1
T32 chain: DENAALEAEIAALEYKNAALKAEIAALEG

O6 = biological target: T33, O6; test: two-hybrid library CCNG1
T33 chain: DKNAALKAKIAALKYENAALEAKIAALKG

O7 = biological target: T34, O7; test: two-hybrid library CCNG1
T34 chain: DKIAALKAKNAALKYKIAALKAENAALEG

O8 = biological target: T35, O8; test: two-hybrid library CCNG1
T35 chain: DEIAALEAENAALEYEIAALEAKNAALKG

O9 = biological target: T36, O9; test: two-hybrid library CCNG1
T36 chain: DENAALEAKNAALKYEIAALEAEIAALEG

Binder: DKIQQLKQKIQELKQKIQELEWENQELEQ [4H2915-bN]
- interaction score (4H2915-bN): 0.918
- interaction score (4H3057-bN): -0.568
- interaction score (4H319-bN): -3.47
- interaction score (4H3277-bN): -1.62
- interaction score (4H348-bN): -0.904
- interaction score (4H40-bN): 1.52
- interaction score (4H477-bN): -2.75
- interaction score (4H492-bN): -1.44
- interaction score (4H741-bN): -1.16

Binder: DKIAALEAENAALEAENAALEAKIAALKG [4H2198-AA]
- interaction score (4H2198-AA): 0.363
- interaction score (4H2553-AA): 1.96
- interaction score (4H2611-AA): -1.63
- interaction score (4H2620-AA): -0.832
- interaction score (4H2648-AA): -1.34
- interaction score (4H2907-AA): -0.303
- interaction score (4H3056-AA): -0.0509
- interaction score (4H3133-AA): -0.581
- interaction score (4H3162-AA): -1.38
- interaction score (4H32-AA): -0.333
- interaction score (4H3378-AA): -1.47
- interaction score (4H340-AA): -1.2
- interaction score (4H3413-AA): -0.996
- interaction score (4H3588-AA): -1.24
- interaction score (4H3606-AA): -1.01
- interaction score (4H3631-AA): -1.38
- interaction score (4H3697-AA): -1.16
- interaction score (4H3718-AA): -0.339
- interaction score (4H384-AA): 1.32
- interaction score (4H3865-AA): -0.834
- interaction score (4H697-AA): 1
- interaction score (4H982-AA): 1.67

Binder: DENAALEAEIAALEYKNAALKAEIAALEG [O5]
- interaction score (O5): -2.36
- interaction score (O6): 1.32
- interaction score (O7): -2.16
- interaction score (O8): -2.4
- interaction score (O9): -2.25

— paper PMC10397247
